Molecular target: the molecule itself
Assay: cryo-EM structure; amyloid fibrils formed at 30 uM protein in 20 mM sodium acetate pH 4.0, 37 °C with rotation, four rounds of sequential seeding (10% w/w sonicated fibrils); helical reconstruction of twisted fibrils, 3.2 Å

B1: TDP-43 low complexity domain (transactive response DNA-binding protein of 43 kDa, C-terminal low-complexity domain) (domain or fragment, UniProt Q13148 267-414, looked up)
chain: NRQLERSGRFGGNPGGFGNQGGFGNSRGGGAGLGNNQGSNMGGGMNFGAFSINPAMMAAAQAALQSSWGMMGMLASQQNQSGPSGNNQNQGNMQREPNQAFGSGNNSYSGSNSGAAIGWGSASNAGSGSGFNGGFGSSMDSKSSGWGM
notes: TDP-43, entire C-terminal low-complexity domain; Wild-type, non-phosphorylated; The assayed form is an amyloid fibril: a single protofilament of stacked subunits with an ordered core of residues 276-414; Five chains were built in the model; also called TDP-43 LCD; LCD; source: Rosetta (DE3) pLysS cells, purified (Ni-NTA in 8 M urea, HPLC on a C4 column), lyophilized
binding result: binds

Source: publication PMC7955110, “Cryo-EM structure of amyloid fibrils formed by the entire low complexity domain of TDP-43” (Nature Communications, 2021)
